The text below walks through data of patent US20210284750A1, “Immunoconjugate Synthesis Method” (priority 2017, published 2021).

Assay [1] concerns Human antigen presenting cells (APCs). Description: APC-tumor co-culture: cytokine secretion in cell-free supernatants (ELISA). The class given is cell-based. Conditions: 18 hours. An excerpt:
(§1) Isolation of Human Antigen Presenting Cells. Human antigen presenting cells (APCs) were negatively selected from human peripheral blood mononuclear cells obtained from healthy blood donors (Stanford Blood Center) by density gradient centrifugation using a RosetteSep Human Monocyte Enrichment Cocktail (Stem Cell Technologies) containing monoclonal antibodies against CD14, CD16, CD40, CD86, CD123, and HLA-DR. Immature APCs were subsequently purified to >97% purity via negative selection using an EasySep Human Monocyte Enrichment Kit without CD16 depletion containing monoclonal antibodies against CD14, CD16, CD40, CD86, CD123, and HLA-DR.
(§2) Preparation of Tumor Cells. Tumor cells were resuspended in PBS with 0.1% fetal bovine serum (FBS) at 1 to 10×10^6 cells/mL. Cells were subsequently incubated with 2 μM CFSE to yield a final concentration of 1 μM. The reaction was ended after 2 minutes via the addition of 10 mL complete medium with 10% FBS and washed once with complete medium. Cells were either fixed in 2% paraformaldehyde and washed three times with PBS or left unfixed prior to freezing the cells in 10% DMSO, 20% FBS and 70% medium.
(§3) APC-Tumor Co-cultures. […] Cells and cell-free supernatants were analyzed after 18 hours via flow cytometry or ELISA.

The test system is the same in assay [2]. In words: APC-tumor co-culture: myeloid activation by flow cytometry. The class given is cell-based. Particulars: 18 hours; for myeloid activation: APC-tumor co-culture.
Source text: as §1, §2, §3

Where [3] appears, read: APCs with CFSE-labeled tumor cells, various concentrations, flow cytometry.

B1: CD20 (protein, UniProt P11836 1-297, looked up)
B-lymphocyte antigen CD20: MTTPRNSVNGTFPAEPMKGPIAMQSGPKPLFRRMSSLVGPTQSFFMRESKTLGAVQIMNGLFHIALGGLLMIPAGIYAPICVTVWYPLWGGIMYIISGSLLAATEKNSRKCLVKGKMIMNSLSLFAAISGMILSIMDILNIKISHFLKMESLNFIRAHTPYINIYNCEPANPSEKNSPSTQYCYSIQSLFLGILSVMLIFAFFQELVIAGIVENEWKRTCSRPKSNIVLLSAEEKKEQTIEIKEEVVGLTETSSQPKNEEDIEIIPIQEEEEEETETNFPEPPQDQESSPIENDSSP
For B1, in assay [1], the “cytokine secretion” value is given as “do not”. Besides, the “myeloid activation” value in assay [2] is recorded as “does not”. For the same molecule, the “myeloid activation” value in assay [2] (listed as unconjugated CD20 antibody) is recorded as “do not”. In assay [2] (setting [3]), the “myeloid activation as indicated by CD14 downregulation” value is recorded as “does not”, the “myeloid activation as indicated by CD16 downregulation” value is on record as “does not”, the “myeloid activation as indicated by CD40 upregulation” value was “does not” and the “myeloid activation as indicated by CD86 upregulation” value is listed as “does not”. In addition, in assay [2] (setting [3]), the “myeloid activation as indicated by CD123 upregulation” value is “does not” and the “myeloid activation as indicated by HLA-DR upregulation” value was “does not”.
